Measured values from patent US20170320928A1 (WISCONSIN ALUMNI RESEARCH FOUNDATION, published 2017).
Like-named read-outs stand apart in the source and are kept apart here. One block for each binder: values may come before it. Square brackets hold non-standard residues; d marks the D form. Primed or numbered codes have the meaning given here. Ends that are not written are not given here. ACPC = cyclic β-residue replacing an α-residue; APC = 3-aminopyrrolidine-4-carboxylic acid; ACPC″ = not defined here; APC″ = not defined here; Aib = CC(C)(N)C(=O)O

Columns and labels:
Test in all cases: cell-based or functional assay
human GLP-1 receptor [1] = biological target: T1, human GLP-1 receptor (human, UniProt P43220 24-463)
human GLP-1 receptor [2] = biological target: T1, human GLP-1 receptor; remark: listed apart in the source
human GLP-1 receptor [3] = biological target: T1, human GLP-1 receptor; remark: listed apart in the source

EC50 (nM), cAMP production (human GLP-1 receptor [1]): > 100 nM
B1: SEQ. ID. NO: 13 (peptide)
peptide: HXEGTFTSDXSXYLEXQAAXEFIXWLVXGRG
modifications: C-terminal primary amide; non-natural residues are marked only by a key given as a drawing (CHEM-US-00002/00003), positions not readable in the text

EC50 nM, cAMP production in HEK293 cells (human GLP-1 receptor [2]): 3.2 nM
Max Response (% GLP-1 max), cAMP production (human GLP-1 receptor [2]): 88 % GLP-1 max
EC50 (nM), cAMP production (human GLP-1 receptor [3]): 3.2 nM
cAMP production, AVERAGES at M Concentrations: -7 (human GLP-1 receptor [3]): 88.3
cAMP production, AVERAGES at M Concentrations: -8 (human GLP-1 receptor [3]): 63
cAMP production, AVERAGES at M Concentrations: -9 (human GLP-1 receptor [3]): 35
cAMP production, AVERAGES at M Concentrations: -10 (human GLP-1 receptor [3]): 4.47
cAMP production, AVERAGES at M Concentrations: -11 (human GLP-1 receptor [3]): 3.5
cAMP production, AVERAGES at M Concentrations: -12 (human GLP-1 receptor [3]): 2.81
cAMP production, AVERAGES at M Concentrations: -13 (human GLP-1 receptor [3]): 3.83
Binder: H[Aib]EGTFTSD[Aib]S[ACPC]YLE[ACPC]QAA[ACPC]EFI[ACPC]WLV[APC]GRG-NH2 [α/β-Peptide SEQ. ID. NO: 7]

EC50 nM, cAMP production in HEK293 cells (human GLP-1 receptor [2]): > 100 nM
cAMP production, AVERAGES at M Concentrations: -7 (human GLP-1 receptor [3]): 100
cAMP production, AVERAGES at M Concentrations: -8 (human GLP-1 receptor [3]): 99.2
cAMP production, AVERAGES at M Concentrations: -9 (human GLP-1 receptor [3]): 42.8
cAMP production, AVERAGES at M Concentrations: -10 (human GLP-1 receptor [3]): 18
cAMP production, AVERAGES at M Concentrations: -12 (human GLP-1 receptor [3]): 5.69
cAMP production, AVERAGES at M Concentrations: -13 (human GLP-1 receptor [3]): 5.69
Binder: HAEGTFT[ACPC″]DVS[ACPC″]YLE[ACPC″]QAA[ACPC″]EFI[ACPC″]WLV[APC″]GRG-NH2 (reading uncertain) [α/β-peptide SEQ. ID. NO: 6]
